Reference: patent US6010851A, “Method for producing nucleoside-5'-phosphate ester” (Ajinomoto Co., Inc., priority 1995, dated 2000)

Key:
[1] = Phosphomonoesterase activity (inosine produced by hydrolysis of 5'-inosinic acid); type: biochemical; settings: purified Escherichia blattae enzyme
Protocol: The phosphomonoesterase activity was measured under the following condition using 5'-inosinic acid as a substrate. The reaction was performed at 30° C. for 10 minutes in a reaction solution (1 ml) containing 10 μmol/ml of 5'-inosinic acid, 100 μmol/ml of MES/NaOH buffer (pH 6.0), and an enzyme. The reaction was stopped by adding 200 μl of 2 N hydrochloric acid. After that, precipitates were removed by centrifugation. Then, inosine produced by the hydrolytic reaction was quantitatively measured. An amount of enzyme to produce 1 μmol of inosine per 1 minute under this standard reaction condition was defined as 1 unit.
Inosine and 5'-inosinic acid were analyzed under the following condition by means of high-performance liquid chromatography (HPLC).

[2] = Properties of the purified acid phosphatase derived from Escherichia blattae; parameters: species or system Escherichia blattae JCM 1650
Protocol: A nutrient medium (pH 7.0, 50 ml) containing 1 g/dl of peptone, 0.5 g/dl of yeast extract, and 1 g/dl of sodium chloride was poured into Sakaguchi flasks (500 ml), which was sterilized at 120° C. for 20 minutes. A slant culture of Escherichia blattae JCM 1650 was inoculated to each of the flasks once with a platinum loop, which was cultivated at 30° C. for 16 hours with shaking. Microbial cells were harvested from a culture by centrifugation. The microbial cells (about 3,300 g) were suspended in 100 mM potassium phosphate buffer (1 L, pH 7.0). A ultrasonic treatment was performed at 4° C. for 20 minutes to disrupt the microbial cells. The treated suspension was centrifuged to remove its insoluble fraction. Thus a cell-free extract was prepared.
The purified enzyme had the following properties.

B1: acid phosphatase derived from Escherichia blattae: enzyme purified from cell-free extract of Escherichia blattae JCM 1650; mature protein SEQ ID NO: 11 (protein)
chain: LALVATGNDTTTKPDLYYLKNSEAINSLALLPPPPAVGSIAFLNDQAMYEQGRLLRNTERGKLAAEDANLSSGGVANAFSGAFGSPITEKDAPALHKLLTNMIEDAGDLATRSAKDHYMRIRPFAFYGVSTCNTTEQDKLSKNGSYPSGHTSIGWATALVLAEINPQRQNEILKRGYELGQSRVICGYHWQSDVDAARVVGSAVVATLHTNPAFQQQLQKAKAEFAQHQKK
phosphate ester hydrolytic activity (phosphomonoesterase activity) relative to transphosphorylation activity [1]: not less than 30 times | Optimum temperature [2]: about 35 °C | Optimum pH ([2]; phosphate ester hydrolytic reaction): 6.5 | Optimum pH ([2]; transphosphorylation reaction): 5.2 | Temperature stability ([2]; treatment at pH 7.0 for 30 minutes): up to 40 °C
